This passage reports peptide exchange yield results from US20160368965A1 (IMMATICS BIOTECHNOLOGIES, published 2016).

For the assay, the target named is T1, HLA-A*02:01 (human).
T1 construct: the tested peptide takes its place; also called peptide-receptive MHC molecules; MHC class I
Description: UV-ligand exchange, anti-β2m ELISA; grade of peptide exchange yield. The source says:
Candidate peptides for T cell based therapies according to the present invention were further tested for their MHC binding capacity (affinity). The individual peptide-MHC complexes were produced by UV-ligand exchange, where a UV-sensitive peptide is cleaved upon UV-irradiation, and exchanged with the peptide of interest as analyzed. Only peptide candidates that can effectively bind and stabilize the peptide-receptive MHC molecules prevent dissociation of the MHC complexes. To determine the yield of the exchange reaction, an ELISA was performed based on the detection of the light chain (β2m) of stabilized MHC complexes. The assay was performed as generally described in Rodenko et al. (Rodenko et al., 2006).
96 well MAXISorp plates (NUNC) were coated over night with 2 ug/ml streptavidin in PBS at room temperature, washed 4× and blocked for 1h at 37° C. in 2% BSA containing blocking buffer. Refolded HLA-A*02:01/MLA-001 monomers served as standards, covering the range of 15-500 ng/ml. Peptide-MHC monomers of the UV-exchange reaction were diluted 100 fold in blocking buffer. Samples were incubated for 1 h at 37° C., washed four times, incubated with 2 ug/ml HRP conjugated anti-β2m for 1h at 37° C., washed again and detected with TMB solution that is stopped with […]. Absorption was measured at 450 nm. Candidate peptides that show a high exchange yield (preferably higher than 50%, most preferred higher than 75%) are generally preferred for a generation and production of antibodies or fragments thereof, and/or T cell receptors or fragments thereof, as they show sufficient avidity to the MHC molecules and prevent dissociation of the MHC complexes.
KISTITPQI [KISTITPQI (SEQ ID NO: 123)]: the peptide exchange yield lay in the range of 20 to 50%.

As to TLWYRPPEL [TLWYRPPEL (SEQ ID NO: 118)], the peptide exchange yield fell in the range of 50 to 75%.

LLSDVRFVL [LLSDVRFVL (SEQ ID NO: 112)] yielded a peptide exchange yield of 50 to 75%.

In turn, SVDGVIKEV [SVDGVIKEV (SEQ ID NO: 117)] returned a peptide exchange yield of 50 to 75%.

Molecule ILLTGTPAL [ILLTGTPAL (SEQ ID NO: 110)] had a peptide exchange yield of 50 to 75%.

Regarding ILASVILNV [ILASVILNV (SEQ ID NO: 109)], the peptide exchange yield was at least 75%.

MQAPRAALVFA [MQAPRAALVFA (SEQ ID NO: 122)] yielded a peptide exchange yield of at least 75%.

In turn, ALLSLDPAAV [ALLSLDPAAV (SEQ ID NO: 126)] came in with a peptide exchange yield of at least 75%.

As to SLFPHNPQFI [SLFPHNPQFI (SEQ ID NO: 114)], the peptide exchange yield was in the range of 50 to 75%.

The molecule LMMSEDRISL [LMMSEDRISL (SEQ ID NO: 113)] showed a peptide exchange yield of 50 to 75%.

SMMDPNHFL [SMMDPNHFL (SEQ ID NO: 116)] came in with a peptide exchange yield of at least 75%.

VLLDKIKNL [VLLDKIKNL (SEQ ID NO: 10)]: the peptide exchange yield lay within 20 to 50%.

As to VLGDDPQLMKV [VLGDDPQLMKV (SEQ ID NO: 119)], the peptide exchange yield lay in the range of 50 to 75%.

Consider LLLAAARLAAA [LLLAAARLAAA (SEQ ID NO: 111)], for which the peptide exchange yield is 50 to 75%.

Molecule ALYYNPHLL [ALYYNPHLL (SEQ ID NO: 11)] had a peptide exchange yield of 20 to 50%.

Molecule SLMDPNKFLLL [SLMDPNKFLLL (SEQ ID NO: 115)] registered a peptide exchange yield of 50 to 75%.

In the case of FLSEVFHQA [FLSEVFHQA (SEQ ID NO: 105)], the peptide exchange yield lay in the range of 50 to 75%.

On to ALYDVRTILL [ALYDVRTILL (SEQ ID NO: 128)], for which the peptide exchange yield lay in the range of 50 to 75%.

Consider FLQPDLDSL [FLQPDLDSL (SEQ ID NO: 104)], for which the peptide exchange yield lay within 50 to 75%.

As to ALFEESGLIRI [ALFEESGLIRI (SEQ ID NO: 124)], the peptide exchange yield was 50 to 75%.

In turn, ALSDLALHFL [ALSDLALHFL (SEQ ID NO: 127)] had a peptide exchange yield of at least 75%.

In the case of FVWSGTAEA [FVWSGTAEA (SEQ ID NO: 106)], the peptide exchange yield lay within 50 to 75%.

With ALLGKLDAINV [ALLGKLDAINV (SEQ ID NO: 125)], the peptide exchange yield lay in the range of 50 to 75%.

Consider AQYKFVYQV [AQYKFVYQV (SEQ ID NO: 12)], for which the peptide exchange yield lay in the range of 50 to 75%.

Consider FVDTRTLL [FVDTRTLL (SEQ ID NO: 1)], for which the peptide exchange yield was in the range of 20 to 50%.

As to FVYGGPQVQL [FVYGGPQVQL (SEQ ID NO: 107)], the peptide exchange yield was 50 to 75%.

For YLDEDTIYHL [YLDEDTIYHL (SEQ ID NO: 121)], the peptide exchange yield lay within 20 to 50%.
